This note sets out measurements from the DeepSol protein solubility set.

This data set is described as follows: soluble on expression in E. coli; label from the status in PepcDB or PDB records.
On to “MLDLHLTMSNSMNYMKAATAYINLEALQHNLQRVKQQAPESKIMAVVKANGYGHGLRHIARHALGADAFGVARIEEALQLRASGVVKPILLLEGFYSPGDLPVLVTNNIQTVVHCEEQLQALEQAQLETPVMVWLKVDSGMHRLGVRPEQYQDFVARLHQCENVAKPLRYMSHFGCADELDKSTTVEQTELFLSLTQGCQGERSLAASAGLLAWPQSQLEWVRPGIIMYGVSPFVEKSAVQLGYQPVMTLKSHLIAVREVKAGESVGYGGTWTSQRDTKIGVIAIGYGDGYPRTAPNGTPVVVNGRRVPIAGRVSMDMLTVDLGPDACDRVGDEAMLWGNELPVEEVAAHIGTIGYELVTKLTSRVEMSYYGAGV”, for which the “soluble on expression in E. coli” value is on record as “not soluble”.

For “MLDLIDSAKESVWIVSPYFVPDEEALAVIRRVAMSGVDVRVIIPGKGDRGISFHGSNAYVKTMIEAGAKMYAYADDSFVHAKAMLVDGTRAAIGTANFDVRSFRLNHELMVFLYDESEAMLHLKRDFKKDFEDSRLFTMKDMENKPLLTRIKEVLSSLLSPIL”, the “soluble on expression in E. coli” value was “not soluble”. In the case of “MLDRILSIRKSRANRLRESMAKINSQIKEVDGKLDDCEQSIKESIASKQAYCASLVNLDKVSLYKYQIKNNAFDEQKQRLYEKKSSLSKEKRSLLDSQKRTKENLQHVNKSVEKLSFAIKEHYFD” it was “not soluble”. In the case of “MLDRIRGQLEQLSSAERKVADLVLEQPYTVIQAAVAEIARNAGVSQPTVIRFCRTVGCSGLPDFKLKLAGSLVTGVPYVHSSVRPEDPTSEIVAKVFDNTVSALLKCRNDVN” it was “not soluble”; in that of “MLDTNMKTQLRAYLEKLTKPVELIATLDDSAKSAEIKELLAEIAELSDKVTFKEDNTLPVRKPSFLITNPGSQQGPRFAGSPLGHEFTSLVLALLWTGGHPSKEAQSLLEQIRDIDGDFEFETYYSLSCHNCPDVVQALNLMAVLNPRIKHTAIDGGTFQNEITERNVMGVPAVFVNGKEFGQGRMTLTEIVAKVDTGAEKRAAEALNKRDAYDVLIVGSGPAGAAAAVYSARKGIRTGLMGERFGGQVLDTVDIENYISVPKTEGQKLAGALKAHVSDYDVDVIDSQSASKLVPAATEGGLHQIETASGAVLKARSIIIATGAKWRNMNVPGEDQYRTKGVTYCPHCDGPLFKGKRVAVIGGGNSGVEAAIDLAGIVEHVTLLEFAPEMKADQVLQDKVRSLKNVDIILNAQTTEVKGDGSKVVGLEYRDRVSGDIHSVALAGIFVQIGLLPNTHWLEGALERNRMGEIIIDAKCETSVKGVFAAGDCTTVPYKQIIIATGEGAKASLSAFDYLIRTKIA”, “soluble”. In the case of “MLEAEVVALKDLIEVAGAVVSTLDLDTVLRHILTSAMRFAETPAGSIALYDGYRNDLTLHAHEGLTPEFVKTERWSVQPGGLTEQVLTRGEILFVNDTADTSFFHNPTALNEGIRSLICVPLMMQNRIVGILYLDDFVPRDFDKERMKLLSVLASFAAMAIDNAQLHARTR” it was “not soluble”.

Take “MLEDLKRQVLEANLALPKHNLVTLTWGNVSAVDRERGVFVIKPSGVDYSIMTADDMVVVSIETGEVVEGAKKPSSDTPTHRLLYQAFPSIGGIVHTHSRHATIWAQAGQSIPATGTTHADYFYGTIPCTRKMTDAEINGEYEWETGNVIVETFEKQGIDAAQMPGVLVHSHGPFAWGKNAEDAVHNAIVLEEVAYMGIFCRQLAPQLPDMQQTLLNKHYLRKHGAKAYYGQ”: the “soluble on expression in E. coli” value was “soluble”. To “MLERTQVFVDTSYLLASFYNSWETGARAQLEIDLPEVVGVLGRMIEQQLKQPVQRQMWYDGIPDSGPHRYQRALRTCDGVQLRAGQLIEWGERRTQKAVDTRLVADLVLAGVRGQCSDIVLVSGDADMIPGVQEAANAGLRVHLYGFGWDSMSSQLRHCCDTTTILDPRED” belongs “not soluble”; to “MLESMTGYGSAERSEKGMKVLVELRSVNNRFAEIGVKLPRQLLSWELEVRELIRASFQRGKISAFVQLQLEEAEALPVTVNPSKVRGYKALLETVRREAEIEAPVTLDHVLRFSEIFEPDHTILEHPDEIWPIAQSALIEAIGNLKEMRRKEGEELAIDFLSRIDEIERTLKEIKEIAAGNLETIRKRLASKISAIAGCDVEYSKDRLEMEIVMAAERLDITEECIRFSSHNKFFIEELNNSSSGSGRKLNFLLQEQLREANTIASKSQNADISQKVVHIKEELEKVREQLQNIE”, “soluble”; to “MLFDLGYVDLQDRSNAEILTHLITKKAILLLGDKQNPADLLAIQDEVQERYLVNFSLFQSMPDFWGLEQNFPIMPLDRLDEEPTRSASIWDITCDSDGEISYSKDKPLFLHDVDVEKENYFLGFFLVGAYQEVLGMKHNLFTHPTEAIISINEKGYEVEGIIEAQSILDTLEDLDYDIHAILEHHHHHH”, “not soluble”.

With “MLFMVKFRWETEFKETDIGKIPKDWDVKKIKDIGEVAGGSTPSTKIKEYWGGDIPWITPKDLANYEYIYISRGERNITEKAVKECSLRIFPKGTILLTSRAPIGYVAIAKNPLTTNQGFRNIIPKDGVVSEYLYYLFKTKTMSEYLKDISGGSTFPELKGSTLKEVEIPYPSPEEQQKIATVLSYFDDLIENKKKQNEILEKIALELFKNWFIDFEPFKNEEFVYNDELDKEIPKGWEVKRLGDILKVESGSNAPQREIYFENAKIPFVRVKHLVKGVCIESSDFINELALKDYKMKLYNEKSIIFQKSGESLKEARVNIVPFKFTAVNHLAVIDSSMLNEKHYFIYCLLRFLLKEIVYSVKGTTLPYLKISDIENKYIIIPPQPILQKFHSLVQPLFEKIINNQKQIMVLKKIRDALLPKLVFGELRVEEL”, the “soluble on expression in E. coli” value is “soluble”. For the sequence “MLFWLMASLWPMKAGVVYADQTEGAITFVSDEKIEGWATAPGIGNGQGNSIRYFMIRIQPKEQSGTAVSYRAEAVEAPADRNGEKKYTFSLDMRGKWPSAPGTMVTYQITVDAYRVLGNGKEDVYFSFPQTPYQYTRQTEASTAKLDFSLSFSQPEYAKPPNGDAQGRLDVTLVPQGAVSGIIRPPIDVVFVMDVSGSMTAMKLQSAKSALQAAVNYFKSNYNQNDRFALIPFSDGVREASVVPFGKYSNVASQLDAILNTGNSLTAGGGTNYSAALSLAKSYFTDPTRKKYIIFLTDGMPTVLNAVDTITYREVKQNFWGGYSYTGNRVTDSLSITYELYSDGRTAGIRFTDNKGYSRRFYSDGQDYVNGWRVSWDNGYSFTYSSIEGKIRADATAVAKTLGMNNITLYSIGFGDNDEVDMDYLRSLSATAGGEARQGTTQNLTALFQQFSQLATTPAITGTIRIPLSSFGGNVAVAENGQVWLDENKQNAYISFSIPYQVGQGTPAPVTIPIPVSFKAKGTYTFTAELTYRDVYGQLQPAVTKTVTVTVKDEAPPSFTGTVKLQGLTNDVTGLIKRGATDGDDNRFRATYSLSLVGYVGNATGTISNVSIVQELPDGISVVPDGKVTTYVENGKRYAKWSFTNQMFDYSQLNKLTLSAQWVMQADFAMNSVQLPPASVTFTDSRYGAKTSTLVPPAERIGMTVRLDDFPNFYYEGNGKGTITKHKFSALSDDIVGQANPNSYGLLPLPVKALEYDPNDDGVLLVTYSNGQTGIGVH”, the “soluble on expression in E. coli” value is on record as “not soluble”. In the case of “MLGIYVLSVDRQSPFAQALKVGDTVTEVNGHHFNSMTGYQRYIQRQKVGQRATITYQRNGKTHHVTAKLMRLPTKKAGIGITLEHHHHHH” it was “not soluble”; in that of “MLIANEVYHALNLEEVWFLPNQIPPHKQGRDITSVESRLQMLELATEAEEHFSICLEELSRKGPSYTYDTMLQLTKKYPDVQFHFIIGGDMVEYLPKWYNIEALLDLVTFVGVARPGYKLRTPYPITTVEIPEFAVSSSLLRERYKEKKTCKYLLPEKVQVYIERNGLYES”, “not soluble”.

In the case of “MLIFGFIGLFFLNIFSLHAQGIVTNKDAQEEFKWALNSYNNGIYDDALLSFKKILSFDPNNLDYHFWTGNVYYRLGYVEEALMEWRNLKDQGYKVPYLRHLISTIEQRRGIFSNYELNFKKLVKVASLDNSIYKRPHGYQITSLRADKYGGYYAANFVGNEILYFDVNNNVNALVKDGFSYLKSPYDVIEANNLLYVTLYSSDEIGVYDKVLGVKRKSIGNKGTKDGELLAPQYMAIDKRNYIYVSEWGNKRVSKFGLEGDFILHFGSRTSGYKGLLGPTGVTYLNENIYVADSLRNTIEVFDTSGNHLYSVFTSIEGIEGLSSDFVGNNVIVSSKDGVYKYSIAKKTITKILKADKMNSKISSSILDANNQMIVSDFNNAKVSVYKSDASLYDSLNVDVRRIIRLGGPKIYVELNVSSKSGLPVVGLKSENFSISNENYYIVNPKVAYNVNASKDINIAVVFDKSSYMKKYDTDQIVGLNALMELSKNKNFSFINATSVPIIDNIESLTNSIRNTSSLGPYSTDAVKTDVSLKLAGSGLMSKSSRRAVVYFSGGILNRKAFEKYSLDTIVSYYKNNDIRFYLILFGNDPINSKLQYLVNETGGAVIPFSSYEGVSKVYDLILEQKTGTYLLEYYYPGPQEPNKYFNLSVEANINQQTGRGEFAYFINLEHHHHHH”, the “soluble on expression in E. coli” value is on record as “not soluble”. As to “MLIRSAKPEDAEFIGSIRVAAWQAAYRGFMPDTYLASLDPGANLDELRAALRAENPPFTLRIAETEGQPIAFSILGKPRYNADQSIVELWALNVHPTHWRKGAGQQLVRQVLLDAKEQKFVSVELWCIQGNLAAQRLYEICGFVPNSQVRTTSSLTGYPLHELAYTYAL”, the “soluble on expression in E. coli” value was “not soluble”. To “MLIRYRKNYEKIAMGLLSFMPTEKDLKRLQQTMKQYETNNDWQLFLWKEGDDIVGIIGVLLRAPDVVEIQHISVNPSHRHQGIGKQMVKALKEVYPGRRLCANEWTASFFDKCHACNE” belongs “not soluble”; to “MLISERFGIKGRADAVRRGMPVELKTGKNLKRSPRFQDKVQAACYGLLLADDIADPPDTGTLLYTKNSALDRSEESGDLSPAKEFSIGPGFLKYVLRVRNEIAAAEYDMSVPTGFEADANCDYCFEQDTCMVVSGRLDQESKAGQLGEPLPEPERAYFERLYRAIEEERREVHAEYRKLWEQSAAERADDDRALVDLDPLGREPLDGGRWALSARRTSDAVSKIREGDRVLASDGHPTQGTAELATVRHLDDEIVVVADEPFELRRIDVYPSELGVDRQLEHHHHHH”, “soluble”; to “MLITSYNPSELGDTLITILRPDTATQTIETHANVTRISDADSGETLGYNFFDVSKTLGDLDANGQVHLTAEQVEQLNNLLKTNDFEPELVLDTDPKFVVGYVESAEAHPKSDHLQITKTNVGLEQPLQIVSGSPNMQANILVVVAKVGAMMPSGLIIWPGELRGVESDGMIVSGRELRLPNAPQRPGALILPADYQPVGAAFDFKRAQTLFTALEHHHHHH”, “not soluble”. To “MLKDQANQLEFPRDFLGISLADQPNKYYFIIRTQRIVLEADSSIQLIMEKLQSYKSKVALYFDGFQYQLGDFRLRVGKVVPTHSENVRGIVMEVEYLPISSMEKAQKVMEEFLEIWNEALAKRSLPGKFVNIDLNFGEFGLGDIYTPQHTAVRYALVMAHMIATVQAVRG” belongs “soluble”; to “MLKEAIYHRPKDNYAYAYDEKTIHIRIRTKRDDVQSTTLIYGDPYEWKDGKWISSSTPMKKTGSTALFDYWFISIEPKFKRLRYGFELKNDTDTLIYAERGFFSTTPNDDVGNFFCFPFIHANDVFKAPSWIKDTVWYQIFPERFANGDHTLNPENTLPWGSAEPTPTNFFGGDFAGIIQNLDYLVKLGISGIYFTPIFKAHSNHKYDTIDYMEIDPQFGTKETFKELVQACHTHGIKVMLDAVFNHSGYFFDKFQDVLQNGEQSAYKEWFHIHEFPIRTEPLPNYDTFAFTPYMPKLNTAHPDVKEYLLEVGRYWVREFNIDGWRLDVANEVDHNFWREFRSEIKALNSEVYILGEIWHDALPWLQGDQFDAVMSYPVTNALLSYFANDSIKANEFMKQITESLHSYSMNVNEAAFHLLDSHDTPRILTTCNGDKNKLKLLYVFHLSFIGSPCIYYGDEIGMDGGMDPDCRKCMVWDTEEQDHTLFTHVQTLISLRKQYKAFGGHGTFQFIEANDEYNYISYTKTYEDETIFFVLNPTNSDITASLPLHVTGKKIINIYTNEEFSAEASVLQVTLPPYGFSILKW”, “not soluble”.
